Experimental data from the NTF2 design screens of Basanta et al. (2020).

Assay: protease stability score; higher = more stable; yeast display proteolysis, trypsin and chymotrypsin;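 note: log10 excess protease needed over predicted unfolded state with 0 meaning unfolded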

Sequence | protease stability score
DNSELAQQRWRDLRKAISENDPKTARDLFDPNVRIEVGEKTLHGRKAASDFVKEIKKDYDHAYLQVTDVDVQGEHVHAHVVLHAEHNGKTTSVEMEMEAVFQGDKLRVRMMRKS | 0.641
DNSVKKIVEEFWKAVKHGDPDKLRELADPNAKFDVGDKVLHGRDRAAKFLHDQHNNARFDITSLRIRVTNGRADIDVKLHVEHNGEPKTSSAKVIVRVRNGRMTELKIRERS | 0.637
DNTHLRMMEQLLKNRSTGDERKVRENADKHVKIDVGDKRLHGREHLQKQQESERTQADVEIQVQTIHDHNGQIVMQFEITVNVNGRPERDTWTLVAEADNGRLKKLSLDLDPDKLKTMES | 0.327
DNTIKRKFHDLIRAWQTNDENRYMQLFDPNVKIRVGNQQFHGREDWSKWFREQMTHLRNDFTVKSLEVDGDKVVADIVAVLSINGRPNKMRVDYRMTVHNGKIKSAEMRFSHEIETKIEQ | 1.46
DPKKAFKVAEEAMKYFVKGNVDELKKILNPDGTARVADHETKGVEEIMKLLQRMKKHGVQVEVKEVRREGNQVEVHTVYHDGDETATLTVQYKAQNGKVDHIKVQYNERMKKIWEKG | 1.2
DPKKAHEVAEEVMKAFVNGNDEQVKRLLKPDVTAKVADRETQGPEQIVRYLRRFDKLGVQYHEEETRKEGNRVEVHTKYKKGDQEATVTVVYEADNGKVDRIEVRYDEEMKKLFEKG | 0.279
DPKKDLKVAEEVLKAMYSGDDEKAQKLVDPSVKAQTGDQKYHGTDDIKKMVKTFKDYGVEHEEKETKVDGGYAEVVIQAKIGNDEVEAKWRVYAKDGRVDYVQADITEKLTKLMQHG | -0.445
DPKKFHKAAVLLAQAAMNGDYKRVVELYKPDARLTLVDQEVQGQEQIKKHAKKFYDRGKRFQFKRVEVTGDYVKLQFDIEVGGTRVTFEARVHAQDDTVDEYELRFDDTAREMQERG | 0.073
DPKKLKEAVEKVIQAMEKGNVEEVVKLYKPDVKFVLGDQEFRGREDVKKQAKKFYTKGARFQLRKVEVKGDKVEVVVDVEVGGTRKTFKFTLKVEDDTVDEYEIRFTEEAKKAKEKG | 0.839
DPKKLYKVAIRVVRAAVSGDVEKVVKMYKPDGKLTLGDQELRGREQIKKYADKFYRKGKRFQADHIRVTGNRVEVIMKFTLGGQTVTFQFYIKLKDDQVDEYEFRFNEEAEKMMRTG | 0.276
DPKKMKEIADKMAKAVLNGNEEEVKKFGAPNVEAEVADQRTQGVDEIVKMLQKVKRMGMEVHTEEKREEGDFIEVHTKYRRGDTEATMTVQYYADNGKVKKIKVEYDRDAKKLFKHG | 0.232
DPKKVEDVAKKVAKAFQDGNEEELKKHLDPTGRAKIADEETQGIEQIIKKLKKVMKLGVQVENKETRYEGNRVEFHTEYRDGDKQATMTVVYHADNGKVKEIRVQYDRDAKEMYEKG | 0.658
DPKRTVKVAEEAAKILYNGDSDKAKKVFKPDLRVKIADRETQGVEQIVKELEKFQKIGVERETKEKRTEGDKVQFHTVYRNGSDQAKMTVEYQAKDGKVDRIQVDYDEKAKKIQEDG | -0.407
DPKRVRQVAKEVAKAFLNGDKDKVKKYGDPNVKAKVLDEETQGVEQIMRELEKFMKLGVQYETKEVREEGDYVEVHTEYRDGDTTAKMTVIYKARDGKVEHLEVHYDRDARKIFRKG | 0.144
DPRKVKDAVRKVVEAMMNGDVEKIVKLYKPDGELYLGSQKVRGQEQVEKEAKKFYDKGARFQVKEQHVKGDNATVVFDMTANGQTVTFQFEIKVKDDTVDKYEVRFTEKADELRRKG | -0.136
DPTELLKYAEKLLEALMKGDSELATKMGKPDVEVQTGDQKYKGQDDLRKVVKKIKDYGVENKIDETEKDGGQVKVKIVARIGDREYTFTWVAEAENGKVRKVQLDIPEDLEKDLKHG | 0.739
DPTKALRLADTALRAFANGNSDQVKQHLKPDVRARVVDEETQGVDQIVKQLQHFVKVGVQRQVDEVRHEGNQVEAHTQYQVGDNQATMTVVYRAQNGKVDEIEVRYDERAKKIFEQG | -0.115
DPTKVDHVARRVLEYMVKGNAEEVRKMVKPNAEAQTGDQKYKGQDEIHKMVKTLKDYGIEVKRDEVRVDGGHAQLKIRANIGDRTYTARWQVEAKDGKVDRIQMDISEDLKKAIKHG | -0.022
DQDAARIYKHQVEAIKTGNPSKVMELADPNVEFHVGDRVITGREQLRNDVDRHKKQMRVEIRIEDITDQGEFANIRANVTIDVNGRPKTSRVNMRVFAHNGKVKSQDFQTSQ | 0.52
DQDAIRRLDEALRAEETGNEKQLKDLFDPNVEFVIGDDEYHGMDSYAKDVRRRKQNMRDHIEHVDMHDNGSQIHIRYRQVANINGTPVKYEITATAEVHNGRFKRMEYRIDEDEQRKLDS | 0.026
DQDALRKWEEILKAMETGDREKVAQLVDPNARVVYGDKEVRGRESIRKRVKEIRDELRFSMELKRFDDHNGRASATLKMNAEHNGQPIHRTASVEIEVQNGRIKSMEIQLRG | 0.062
DQDAQRQLREAMKDEESGDHRSIRENIDPNAKLDVGDKDVTGRENVAKEIKHQVDESRVKIDHYRMEVHGDRVTVTFNAVETHNGQPRRKTYQVIFKIHNGQFKKIMMRTSQ | 0.546
DQDEIRQNARDLATGDPDRAREQADKHVRVEIGEKTLHGREKLEEWMKHIHERIDHNRVHDIQIDNGRVEASVNVDINGKKVVFTIVAEFDNGKIQRVQVDVRDHEVQKVMEEIDS | 0.821
DQDEQRHQMEEVRKAFQRGDNEKFERLADPNVRYQVGDKTYHGREQASKALSDIREQVDHLEIKDYKIHGNKLDINVVVDINGEKHEYRIIVHIHNGRITRYQFQST | 0.73
DQDHEQKMMTRVAHAFDNGDDQSLARLMDPNVSVTVGDKSVHGRERVRELVNEWRHRVDHIKLDRVEHQGNKAKFHITVEHNGERDQVDLEIEARNGKVKNVVLHRP | 1.26
